According to US20240270821A1, “GIP/GLP1/GCG TRI-RECEPTOR AGONISTS AND USES THEREOF” (priority 2023, published 2024):
Where a chain is given by its changes, count along the chain named.

Columns and labels:
Assay in all cases: cell-based or functional assay
[1] = molecular target: human glucagon receptor (human) (UniProt P47871)
[2] = molecular target: T1, human GIP receptor (human) (UniProt P48546)
T1 sequence (looked up): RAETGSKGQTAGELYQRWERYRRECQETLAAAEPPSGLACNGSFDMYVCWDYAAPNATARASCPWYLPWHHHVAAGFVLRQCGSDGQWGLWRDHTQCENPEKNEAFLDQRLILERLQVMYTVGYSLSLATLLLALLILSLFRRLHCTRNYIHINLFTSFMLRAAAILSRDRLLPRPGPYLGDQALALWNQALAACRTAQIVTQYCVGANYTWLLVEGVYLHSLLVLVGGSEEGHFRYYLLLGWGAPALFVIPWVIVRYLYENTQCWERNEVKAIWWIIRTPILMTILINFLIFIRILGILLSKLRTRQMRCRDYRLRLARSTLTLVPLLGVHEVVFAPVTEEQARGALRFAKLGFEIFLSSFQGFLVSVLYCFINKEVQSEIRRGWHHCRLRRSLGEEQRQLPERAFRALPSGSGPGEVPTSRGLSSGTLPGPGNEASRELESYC

hGLP-1R = hGLP-1R (Homo sapiens, UniProt P43220)
Sequence of hGLP-1R (P43220 24-463): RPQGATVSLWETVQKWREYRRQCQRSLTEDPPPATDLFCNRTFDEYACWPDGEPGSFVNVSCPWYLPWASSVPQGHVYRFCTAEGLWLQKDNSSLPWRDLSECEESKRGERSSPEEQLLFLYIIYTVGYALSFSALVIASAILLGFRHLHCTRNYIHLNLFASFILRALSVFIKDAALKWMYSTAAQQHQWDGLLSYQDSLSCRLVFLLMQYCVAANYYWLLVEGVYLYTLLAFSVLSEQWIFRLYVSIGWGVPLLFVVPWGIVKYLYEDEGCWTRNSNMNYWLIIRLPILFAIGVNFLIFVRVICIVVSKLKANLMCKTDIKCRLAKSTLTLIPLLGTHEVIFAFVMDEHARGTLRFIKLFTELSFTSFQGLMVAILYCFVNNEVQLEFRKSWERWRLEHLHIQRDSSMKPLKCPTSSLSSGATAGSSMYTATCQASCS

Sequence of human glucagon receptor (human) (P47871 26-477): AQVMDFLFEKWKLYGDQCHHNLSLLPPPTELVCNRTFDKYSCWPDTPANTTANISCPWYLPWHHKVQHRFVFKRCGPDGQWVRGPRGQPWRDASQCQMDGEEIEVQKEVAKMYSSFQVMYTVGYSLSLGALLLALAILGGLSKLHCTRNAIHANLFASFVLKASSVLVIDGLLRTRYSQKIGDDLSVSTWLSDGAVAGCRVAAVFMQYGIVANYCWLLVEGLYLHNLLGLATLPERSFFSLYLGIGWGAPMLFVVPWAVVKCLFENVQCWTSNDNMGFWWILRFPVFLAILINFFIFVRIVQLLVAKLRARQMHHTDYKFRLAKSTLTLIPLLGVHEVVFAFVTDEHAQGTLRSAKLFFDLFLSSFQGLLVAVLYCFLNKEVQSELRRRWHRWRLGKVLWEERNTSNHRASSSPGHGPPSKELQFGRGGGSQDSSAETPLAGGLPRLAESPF

B1: Example 978 (peptide)
chain: YXQGTFTSDXSQXLDXKAQXAFIEYLIAGGPSSGEPPPSGSGE
modifications: synthetic construct; SITE 2: note = 2-Aminoisobutyric Acid; SITE 10: note = 3-(4-Pyridyl)-L-alanine; SITE 13: note = alpha-methyl-leucine; SITE 16: note = L-ornithine; SITE 17: note = Lysine is chemically modified through conjugation of the epsilon-amino group of the Lysine side chain with (gamma-Gl)
Relative cAMP EC50 [1]: 8.91 nM | cAMP Rel EC50, nM (1% HSA) [1]: 824 nM | Relative cAMP EC50 [2]: 0.284 nM | cAMP Rel EC50, nM (1% HSA) [2]: 33.9 nM | Relative cAMP EC50 (hGLP-1R): 1.6 nM | cAMP Rel EC50, nM (1% HSA) (hGLP-1R): 174 nM

B2: Example 994 (peptide)
chain: B1 chain with Q12X, A21X, Y25X, E35A, G42E
modifications: Lys acylated with (γGlu)2-C18 diacid; non-natural residues; C-amide; synthetic construct; SITE 2: note = 2-Aminoisobutyric Acid; SITE 10: note = 3-(4-Pyridyl)-L-alanine; SITE 12: note = L-ornithine; SITE 13: note = alpha-methyl-leucine; SITE 16: note = L-ornithine; SITE 17: note = Lysine is chemically modified through conjugation of the epsilon-amino group of the Lys
cAMP Rel EC50, nM (1% HSA) [1]: 1050 nM | cAMP Rel EC50, nM (1% HSA) [2]: 30.8 nM | cAMP Rel EC50, nM (1% HSA) (hGLP-1R): 395 nM

B3: Example 998 (peptide)
chain: B1 chain with A21Q, Y25X, I27L, E35A, G42E
modifications: non-natural residues, acylated Lys, C-terminal amide; synthetic construct; SITE 2: note = 2-Aminoisobutyric Acid; SITE 10: note = 3-(4-Pyridyl)-L-alanine; SITE 13: note = alpha-methyl-leucine; SITE 16: note = L-ornithine; SITE 17: note = Lysine is chemically modified through conjugation of the epsilon-amino group of the Lysine side chain with (gamma-Gl)
cAMP Rel EC50, nM (1% HSA) [1]: 794 nM | cAMP Rel EC50, nM (1% HSA) [2]: 6.78 nM | cAMP Rel EC50, nM (1% HSA) (hGLP-1R): 1470 nM

B4: Example 1004 (peptide)
chain: B1 chain with Q12X, A21X, I27L, E35A, G42E
modifications: non-natural residues; C18 diacid-(γ-Glu)2 acyl on Lys; C-terminal amide; synthetic construct; SITE 2: note = 2-Aminoisobutyric Acid; SITE 10: note = 3-(4-Pyridyl)-L-alanine; SITE 12: note = L-ornithine; SITE 13: note = alpha-methyl-leucine; SITE 16: note = L-ornithine; SITE 17: note = Lysine is chemically modified through conjugation of the epsilon-amino group of the Lys
cAMP Rel EC50, nM (1% HSA) [1]: 237 nM | cAMP Rel EC50, nM (1% HSA) [2]: 35.4 nM | cAMP Rel EC50, nM (1% HSA) (hGLP-1R): 973 nM

B5: Example 1002 (peptide)
chain: B1 chain with Q12X, A21Q, I27L, E35A, G42E
modifications: non-natural residues; (γGlu)2-C18 diacid on Lys; C-terminal amide; synthetic construct; SITE 2: note = 2-Aminoisobutyric Acid; SITE 10: note = 3-(4-Pyridyl)-L-alanine; SITE 12: note = L-ornithine; SITE 13: note = alpha-methyl-leucine; SITE 16: note = L-ornithine; SITE 17: note = Lysine is chemically modified through conjugation of the epsilon-amino group of the Lys
cAMP Rel EC50, nM (1% HSA) [1]: 197 nM | cAMP Rel EC50, nM (1% HSA) [2]: 11.6 nM | cAMP Rel EC50, nM (1% HSA) (hGLP-1R): 1290 nM

B6: Example 1003 (peptide)
chain: B1 chain with Q12X, A21E, I27L, E35A, G42E
modifications: (γGlu)2-C18 diacid on Lys; non-natural residues; amide; synthetic construct; SITE 2: note = 2-Aminoisobutyric Acid; SITE 10: note = 3-(4-Pyridyl)-L-alanine; SITE 12: note = L-ornithine; SITE 13: note = alpha-methyl-leucine; SITE 16: note = L-ornithine; SITE 17: note = Lysine is chemically modified through conjugation of the epsilon-amino group of the Lys
cAMP Rel EC50, nM (1% HSA) [1]: 371 nM | cAMP Rel EC50, nM (1% HSA) [2]: 15.9 nM | cAMP Rel EC50, nM (1% HSA) (hGLP-1R): 1950 nM

B7: Example 1000 (peptide)
chain: B1 chain with Q12X, A21Q, E35A, G42E
modifications: Lys acylated with (γGlu)2-C18 diacid; non-natural residues; C-amide; synthetic construct; SITE 2: note = 2-Aminoisobutyric Acid; SITE 10: note = 3-(4-Pyridyl)-L-alanine; SITE 12: note = L-ornithine; SITE 13: note = alpha-methyl-leucine; SITE 16: note = L-ornithine; SITE 17: note = Lysine is chemically modified through conjugation of the epsilon-amino group of the Lys
cAMP Rel EC50, nM (1% HSA) [1]: 501 nM | cAMP Rel EC50, nM (1% HSA) [2]: 15.5 nM | cAMP Rel EC50, nM (1% HSA) (hGLP-1R): 279 nM

B8: Example 993 (peptide)
chain: B1 chain with Q12X, A21E, Y25X, E35A, G42E
modifications: non-natural residues; lipidated Lys (γGlu)2-C18 diacid; C-term amide; synthetic construct; SITE 2: note = 2-Aminoisobutyric Acid; SITE 10: note = 3-(4-Pyridyl)-L-alanine; SITE 12: note = L-ornithine; SITE 13: note = alpha-methyl-leucine; SITE 16: note = L-ornithine; SITE 17: note = Lysine is chemically modified through conjugation of the epsilon-amino group of the Lys
cAMP Rel EC50, nM (1% HSA) [1]: 1860 nM | cAMP Rel EC50, nM (1% HSA) [2]: 14.5 nM | cAMP Rel EC50, nM (1% HSA) (hGLP-1R): 1210 nM

B9: Example 1005 (peptide)
chain: B1 chain with A21Q, E35A, G42E
modifications: not fully specified; synthetic construct; SITE 2: note = 2-Aminoisobutyric Acid; SITE 10: note = 3-(4-Pyridyl)-L-alanine; SITE 13: note = alpha-methyl-leucine; SITE 16: note = L-ornithine; SITE 17: note = Lysine is chemically modified through conjugation of the epsilon-amino group of the Lysine side chain with (gamma-Gl)
Relative cAMP EC50 [1]: 9.46 nM | cAMP Rel EC50, nM (1% HSA) [1]: 1670 nM | Relative cAMP EC50 [2]: 0.152 nM | cAMP Rel EC50, nM (1% HSA) [2]: 14.5 nM | Relative cAMP EC50 (hGLP-1R): 1.48 nM | cAMP Rel EC50, nM (1% HSA) (hGLP-1R): 171 nM

B10: Example 981 (peptide)
chain: B1 chain with Q12X, X16K, S41T, G42E
modifications: synthetic construct; SITE 2: note = 2-Aminoisobutyric Acid; SITE 10: note = 3-(4-Pyridyl)-L-alanine; SITE 12: note = L-ornithine; SITE 13: note = alpha-methyl-leucine; SITE 17: note = Lysine is chemically modified through conjugation of the epsilon-amino group of the Lysine side chain with (gamma-Gl)
Relative cAMP EC50 [1]: 3.7 nM | cAMP Rel EC50, nM (1% HSA) [1]: 477 nM | Relative cAMP EC50 [2]: 0.243 nM | cAMP Rel EC50, nM (1% HSA) [2]: 21.1 nM | Relative cAMP EC50 (hGLP-1R): 4.45 nM | cAMP Rel EC50, nM (1% HSA) (hGLP-1R): 330 nM

B11: Example 992 (peptide)
chain: B1 chain with Q12X, A21Q, Y25X, E35A, G42E
modifications: non-natural residues (Aib, 4Pal, Orn, Me4Pal, αMeY); lipidated Lys; C-amide; synthetic construct; SITE 2: note = 2-Aminoisobutyric Acid; SITE 10: note = 3-(4-Pyridyl)-L-alanine; SITE 12: note = L-ornithine; SITE 13: note = alpha-methyl-leucine; SITE 16: note = L-ornithine; SITE 17: note = Lysine is chemically modified through conjugation of the epsilon-amino group of the Lys
cAMP Rel EC50, nM (1% HSA) [1]: 863 nM | cAMP Rel EC50, nM (1% HSA) [2]: 12.5 nM | cAMP Rel EC50, nM (1% HSA) (hGLP-1R): 643 nM

B12: Example 999 (peptide)
chain: B1 chain with A21E, Y25X, I27L, E35A, G42E
modifications: Aib, 4Pal, αMeL, Orn, Me4Pal, αMeY; γGlu2-C18 diacid Lys; amide; synthetic construct; SITE 2: note = 2-Aminoisobutyric Acid; SITE 10: note = 3-(4-Pyridyl)-L-alanine; SITE 13: note = alpha-methyl-leucine; SITE 16: note = L-ornithine; SITE 17: note = Lysine is chemically modified through conjugation of the epsilon-amino group of the Lysine side chain with (gamma-Gl)
cAMP Rel EC50, nM (1% HSA) [1]: 2130 nM | cAMP Rel EC50, nM (1% HSA) [2]: 10.4 nM | cAMP Rel EC50, nM (1% HSA) (hGLP-1R): 3020 nM

B13: Example 1006 (peptide)
chain: B1 chain with A21Q, I27L, E35A, G42E
modifications: synthetic construct; SITE 2: note = 2-Aminoisobutyric Acid; SITE 10: note = 3-(4-Pyridyl)-L-alanine; SITE 13: note = alpha-methyl-leucine; SITE 16: note = L-ornithine; SITE 17: note = Lysine is chemically modified through conjugation of the epsilon-amino group of the Lysine side chain with (gamma-Gl)
Relative cAMP EC50 [1]: 4.28 nM | cAMP Rel EC50, nM (1% HSA) [1]: 315 nM | Relative cAMP EC50 [2]: 0.109 nM | cAMP Rel EC50, nM (1% HSA) [2]: 11.8 nM | Relative cAMP EC50 (hGLP-1R): 5.12 nM | cAMP Rel EC50, nM (1% HSA) (hGLP-1R): 574 nM

B14: Example 985 (peptide)
chain: B1 chain with Q12X, S41T, G42E
modifications: non-natural residues, acylated Lys, C-terminal amide; synthetic construct; SITE 2: note = 2-Aminoisobutyric Acid; SITE 10: note = 3-(4-Pyridyl)-L-alanine; SITE 12: note = L-ornithine; SITE 13: note = alpha-methyl-leucine; SITE 16: note = L-ornithine; SITE 17: note = Lysine is chemically modified through conjugation of the epsilon-amino group of the Lys
Relative cAMP EC50 [1]: 5.41 nM | cAMP Rel EC50, nM (1% HSA) [1]: 374 nM | Relative cAMP EC50 [2]: 0.34 nM | cAMP Rel EC50, nM (1% HSA) [2]: 24 nM | Relative cAMP EC50 (hGLP-1R): 2.93 nM | cAMP Rel EC50, nM (1% HSA) (hGLP-1R): 217 nM

B15: Example 982 (peptide)
chain: YXQGTFTSDXSXXLDKKAQXAFIEYLIAGGPSSGEPPPSGTEEE
modifications: synthetic construct; SITE 2: note = 2-Aminoisobutyric Acid; SITE 10: note = 3-(4-Pyridyl)-L-alanine; SITE 12: note = L-ornithine; SITE 13: note = alpha-methyl-leucine; SITE 17: note = Lysine is chemically modified through conjugation of the epsilon-amino group of the Lysine side chain with (gamma-Gl)
Relative cAMP EC50 [1]: 3.91 nM | cAMP Rel EC50, nM (1% HSA) [1]: 307 nM | Relative cAMP EC50 [2]: 0.328 nM | cAMP Rel EC50, nM (1% HSA) [2]: 19.4 nM | Relative cAMP EC50 (hGLP-1R): 4.94 nM | cAMP Rel EC50, nM (1% HSA) (hGLP-1R): 310 nM
